Laboratory results published in the RNAGym collection of RNA variant scans (doi:10.1073/pnas.2313332121).
Variants at the floor of the assay were thinned out.

B1: TPR 5TU (parent)
chain: GGAUCUUCUCGAUCUAACAAAAAAGACAAAUCUGCCACAAAGCUUGAGAGCAUCUUCGGAUGCAGAGGCGGCAGCCUUCGGUGGCGCGAUAGCGCCAACGUUCUCAACUAUGACACGCAAAACGCGUGCUCCGUUGAAUGGAGUUUAUCAUG

Variants of: B1
Assay: polymerase ribozyme fitness, log enrichment relative to wild type (log ratio); higher = more active; in vitro selection for triplet polymerase activity
Procedure, shortened: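 Only genotypes with ≥10 input reads and ≥1 read per output were kept after Illumina sequencing of input and output libraries. These libraries were PCR-built, transcribed mutants of each subunit of a heterodimeric triplet polymerase ribozyme, each put through one triplicate in vitro selection round with frozen incubation at −7 °C, gel excision of extended constructs, streptavidin-bead capture and RT-PCR. Fitness is a logarithmic ratio of genotype enrichment to wild-type enrichment, from inverse-variance-weighted replicate averages, with the logarithm in base 2.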

| Variant | polymerase ribozyme fitness (log ratio) |
| --- | --- |
| C32A G80U C96U A138U | ≤ -4.2 |
| U33C G42A C93U C108U | ≤ -4.2 |
| U33C G141A | -2.97 |
| C35U A60G U102C C116A | -3.97 |
| U33G C96A | -1.72 |
| U33C C105G | -4.2 |
| C32U G65A G71C G94U | ≤ -4.2 |
| U33C G59C A64G C96G U130C | ≤ -4.2 |
| G34U U55A A60C A73C C85U G136C U144A | ≤ -4.2 |
| C32U A52U G84U | ≤ -4.2 |
| C35A C79U C99U C103U | ≤ -4.2 |
| G34U A39U G48A U77G C79G C95U | ≤ -4.2 |
| C35G A52G C96U G140U | -4.08 |
| C35U A52C U90A C95U A122C | ≤ -4.2 |
| G34A A41C C54A U55A C95A C103A A150C | ≤ -4.2 |
| C32A A47C A122G A147C | ≤ -4.2 |
| C36A C57U C63A G86A A147G | ≤ -4.2 |
| C32G G58A C93A G128A | -4.2 |
| C35G G83C | -4.19 |
| C32G A40C G83C A110U U111C | ≤ -4.2 |
| C35U G81C U109G C116U | -3.18 |

| Variant | polymerase ribozyme fitness (log ratio) |
| --- | --- |
| C35U C105G G126A | -2.32 |
| G34C U61G A150G | ≤ -4.2 |
| C32G G50A C63U A91G C125G A147G | ≤ -4.2 |
| C32G A64U C105U G152U | ≤ -4.2 |
| C35A G94C A106G | -3.77 |
| C32G C72G C87A A98G | ≤ -4.2 |
| C35G G70A C87G U109C | ≤ -4.2 |
| C35U C114U | -2.28 |
| C35U C114A | -3.87 |
| C32U A66G A98U | -4.11 |
| U33C U53G U77A G143C | ≤ -4.2 |
| C35G G48U C57U A110U C116U A138C | ≤ -4.2 |
| C32A G94A | -4 |
| C35U U53A G92U C103U C114G A115U A122U | ≤ -4.2 |
| U33A C63U C93A A97G G126C | ≤ -4.2 |
| C35G G80A A91U C105U | ≤ -4.2 |
| C35U C57G G65U U144C | -4.2 |
| C32U C36G A39U G59U A120G | -4.07 |
| C35U G86A | -1.37 |
| U33G C43A C57A A60C G74A G83A C85G A150U | ≤ -4.2 |
| C32U U56A G74A | 0.713 |

| Variant | polymerase ribozyme fitness (log ratio) |
| --- | --- |
| C32A A37C C54G G83A C118A G136U A138C G141C U145G | ≤ -4.2 |
| G34U G83U A91C C99U A107U | ≤ -4.2 |
| C32U G59U C85U A115G | -3.62 |
| C32A A37G U61G G94U G124U | ≤ -4.2 |
| U33G C51U G80U C87A C96U A120G C129A U148G | ≤ -4.2 |
| G34A G88C A115C A137G | ≤ -4.2 |
| U31G G34A U61A C85G | ≤ -4.2 |
| U31G G92U U127G | -4.07 |
| C35A C69A C99U U127C | ≤ -4.2 |
| G34U C96G U144C | ≤ -4.2 |
| C35U A60C A98U A142G | -2.28 |
| C32A U55G C69G | -3.22 |
| U31G C93U C99U C116A A119G A142C | ≤ -4.2 |
| C35U C54U G65U G83C C95U C103G A106G | ≤ -4.2 |
| C36A U55A | -3.27 |
| C35G C95G | -4.19 |
| C32G A41C A60U G92U G140C | ≤ -4.2 |
| C36A C57A C99G A106U A115C | ≤ -4.2 |
| C35G C85U | ≤ -4.2 |
| U33C C38G C93G A137G G141C | ≤ -4.2 |
| C35U G50A U53A U56A C85A C93A C95U | ≤ -4.2 |

| Variant | polymerase ribozyme fitness (log ratio) |
| --- | --- |
| G34A U82G C96A C99G | ≤ -4.2 |
| C35A G80C G88A C103U A110G C149A | ≤ -4.2 |
| U33C U82A | -2.77 |
| C35U G50A U82C G141U | -4.1 |
| C35U A52G U56A U109G A119U | -3.89 |
| C35A U55G C57U C93A C96G C118U | ≤ -4.2 |
| C32U U77A A89U C93U A106U | ≤ -4.2 |
| C32A A52G U53A G65C C99U G143U | ≤ -4.2 |
| G34C U56A G128A U135C G140U | ≤ -4.2 |
| C32A G50A C57A U82A C99A U101A | ≤ -4.2 |
| G34U G48U G59C G67C G81C U134A G141U | ≤ -4.2 |
| G34C C93U A98U | -3.85 |
| C35G G48A G58U C79U C85U | ≤ -4.2 |
| U33G C36A G50A A52C G84A A97C A138C | -3.92 |
| U33C C57U U61A G84A U101G G140U U145A | -4 |
| C35U G59A | 0.0486 |
| G34C C69G C85G C105A | ≤ -4.2 |
| U31G G84U | -0.431 |
| C35G G94U A97U | -4.17 |
| C35U G83C | -1.43 |
| G34A C38A C76G C99G U104A A107U G143A | ≤ -4.2 |
